Experimental data reported in patent publication US20240317847A1 (Bayer, published 2024).
Numbering of substitutions follows the chain as printed. Blank lines part the entries; values can stand above or below the binder they belong to.

Experiments:
[1] = molecular target: T1, human IL-11 (human, UniProt P20809 22-199); assay: cell-based or functional assay
T1 sequence: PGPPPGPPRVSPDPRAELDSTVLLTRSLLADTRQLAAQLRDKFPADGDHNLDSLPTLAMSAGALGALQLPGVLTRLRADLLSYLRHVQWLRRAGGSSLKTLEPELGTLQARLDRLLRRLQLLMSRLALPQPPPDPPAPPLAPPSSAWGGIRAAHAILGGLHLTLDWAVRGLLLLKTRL

[2] = molecular target: T2, murine IL-11 (mouse, UniProt P47873 22-199); assay: cell-based or functional assay
T2 sequence: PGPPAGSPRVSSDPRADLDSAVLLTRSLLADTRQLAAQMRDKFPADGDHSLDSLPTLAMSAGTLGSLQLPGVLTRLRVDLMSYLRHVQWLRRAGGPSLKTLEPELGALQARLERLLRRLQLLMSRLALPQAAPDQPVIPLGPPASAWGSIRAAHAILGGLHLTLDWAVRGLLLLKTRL

[3] = molecular target: T3, cynomolgus IL-11 (cynomolgus, UniProt P20808 22-199); assay: cell-based or functional assay
T3 sequence: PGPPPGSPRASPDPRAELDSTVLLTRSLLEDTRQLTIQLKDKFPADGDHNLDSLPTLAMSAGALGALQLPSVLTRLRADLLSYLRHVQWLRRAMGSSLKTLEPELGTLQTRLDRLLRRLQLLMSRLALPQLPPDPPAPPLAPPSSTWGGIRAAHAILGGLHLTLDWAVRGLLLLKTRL

[4] = molecular target: T4, rat IL-11 (rat, UniProt Q99MF5 22-199); assay: cell-based or functional assay
T4 sequence: T2 sequence with S50N, L84F, G94A, V137A, I138V

[5] = molecular target: T5, murine IL-11 (mouse, UniProt P47873 22-199); assay: Di-complex ELISA, canine IL11RA-hFc binding to immobilized mIL-11, competition
T5 construct: Invigate recombinant protein; biotinylated when immobilized in the Di-complex ELISA; also called mIL11; mIL-11
T5 sequence: T2 sequence
Description: In the Di-complex ELISA format anti IL-11 antibodies are tested for the ability to interfere with the formation of complexes consisting of immobilized murine IL-11 (Invigate, e.g., lot #C210819-09) or human IL-11 (Invigate, e.g., lot #C121021-19), and murine IL11RA-Fc fusion proteins or canine IL11RA-human-Fc fusion protein (FIG. 17a, b).
Bispecific antibodies were subjected to the experimental assay procedure described in Example 18 and IC50 [M], respectively efficacy (%) were calculated accordingly.

[6] = molecular target: T6, human IL-11 (human, UniProt P20809 22-199); assay: Di-complex ELISA, murine IL11RA-Fc binding to immobilized hIL-11, competition
T6 construct: Invigate recombinant protein; biotinylated when immobilized in the Di-complex ELISA; also called hIL11; hIL-11
T6 sequence: T1 sequence

[7] = molecular target: T5, murine IL-11; assay: SPR (Biacore), 25 C, antibody captured via anti-Fc, IL-11 as analyte, determined in steady state
[8] = molecular target: T6, human IL-11; assay: Tri-complex ELISA, hIL-11 + mIL-11Ra-Fc + hgp130-Fc, inhibition of complex formation; Tri-complex ELISA (IL-11/IL-11Ra/gp130 formation), efficacy only 25%
Description: In a first step, 25 μl of goat anti human IgG (Sigma, #12136), diluted 1:1000 in coating buffer (Candor, #121125) was coated on the plate at 4° C. overnight. Next day, the plate was washed one time with 50 μl PBST and then blocked with 50 μl SmartBlock (Candor, #113125) for one hour at room temperature (RT). […] After three additional washes of the coated and blocked microtiter plate with PBS-T, 25 μl of each mixture were added and the assay plate was incubated for one hour at room temperature. After three additional washes, anti-mouse-gp130 biotinylated antibody (R&D, #BAF468) or anti-human gp130 biotinylated antibody (R&D, #BAF228), both 1:1000 in 10% SmartBlock PBS-T, was added and incubated for 1 hour at RT. […] Then, the fluorescence was measured with a plate reader at 535/595 nm. […] Efficacy was calculated as [(signal measured at lowest antibody concentration−signal measured at the highest antibody concentration)×100] divided by (signal measured at lowest antibody concentration−signal measured in the absence of antibody at an IL11 concentration of 8.2E-11 [M]).
IgG converted antibodies were subjected to the experimental assay procedure described in Example 19 and IC50 [M], respectively efficacy (%) were calculated accordingly.

B1: TPP-18068 (antibody, mouse IgG1)
heavy: EVQLLESGGGLVQPGGSLRLSCAASGFTFSSYGMHWVRQAPGKGLEWVSVISYDGSYKYYADSVKGRFTISRDNSKNTLYLQMNSLRAEDTAVYYCAAGVPDYWGQGTLVTVSSAKTTPPSVYPLAPGSAAQTNSMVTLGCLVKGYFPEPVTVTWNSGSLSSGVHTFPAVLQSDLYTLSSSVTVPSSTWPSETVTCNVAHPASSTKVDKKIVPRDCGCKPCICTVPEVSSVFIFPPKPKDVLTITLTPKVTCVVVDISKDDPEVQFSWFVDDVEVHTAQTQPREEQFNSTFRSVSELPIMHQDWLNGKEFKCRVNSAAFPAPIEKTISKTKGRPKAPQVYTIPPPKEQMAKDKVSLTCMITDFFPEDITVEWQWNGQPAENYKNTQPIMDTDGSYFVYSKLNVQKSNWEAGNTFTCSVLHEGLHNHHTEKSLSHSPGK
light: QSVLTQPPSASGTPGQRVTISCTGSSSNIGAGYDVHWYQQLPGTAPKLLIYSNNERPSGVPDRFSGSKSGTSASLAISGLRSEDEADYYCAAWDDSLNGPVFGGGTKLTVLGQPKSSPSVTLFPPSSEELETNKATLVCTITDFYPGVVTVDWKVDGTPVTQGMETTQPSKQSNNKYMASSYLTLTARAWERHSSYSCQVTHEGHTVEKSLSRADCS
notes: mIgG1, Lambda
RGA Efficacy (%) [1]: 46.1%
RGA IC50 [1]: 6.5 nM
RGA Efficacy (%) [2]: 93.6%
RGA IC50 [2]: 1.2 nM
RGA Efficacy (%) [3]: 70%
RGA IC50 [3]: 4.1 nM
RGA Efficacy (%) [4]: 94%
RGA IC50 [4]: 1.8 nM

B4: TPP-18087 (antibody, mouse IgG1, V domains shown)
VH: EVQLLESGGGLVQPGGSLRLSCAASGFTFSHYDMNWLRQAPGKGLEWVGVISYDGSNKFYADFVKGRFTISRDNSKNTLYLQMNSLRAEDTAVYYCARTPGSHFDYWGQGTLVTVSS
VL: QSVLTQPPSASGTPGQRVTISCSGSSSNIGNNAVNWYQQLPGTAPKLLIYYDDLLPSGVPDRFSGSKSGTSASLAISGLRSEDEADYYCSAWDDSLNGVVFGGGTKLTVLG
notes: mIgG1, Lambda
Kd [7]: 33 nM
IC50 [8]: 1.5 nM

More lines, now with the values ahead:

IC50 [5]: 3.9 nM
B2: TPP-29603 (bispecific antibody, IgG1)
chain 1: QVQLVESGGGVVQPGRSLRLSCAASGFTFSHYDMHWVRQAPGKGLEWVAVISYHGSVKFYADSVKGRFTISRDNSKNTLYLQMNSLRAEDTAVYYCARTPGFHFDYWGQGTLVTVSSGGGGSGGGGSGGGGSQSVLTQPPSASGTPGQRVTISCSGSSSNIGSNYVSWYQQLPGTAPKLLIYYDDLRPSGVPDRFSGSKSGTSASLAISGLRSEDEADYYCSAWDDSLSGVVFGGGTKLTVLGGGGSGGGGSGGGGSGVECPPCPAPPVAGPSVFIFPPKPKDVLTITLTPKVTCVVVDISKDDPEVQFSWFVDDVEVHTAQTQPREEQFNSTFRSVSELPIMHQDWLNGKEFKCRVNSAAFPAPIEKTISKTKGRPKAPQVYTIPPCKEQMAKDKVSLWCMITDFFPEDITVEWQWNGQPAENYKNTQPIMDTDGSYFVYSKLNVQKSNWEAGNTFTCSVLHEGLHNHHTEKSLSHSPGK
chain 2: EVQLLESGGGLVQPGGSLRLSCAASGFTFSSYGMHWVRQAPGKGLEWVAVISYDGSYKYYADSVKGRFTISRDNSKNTLYLQMNSLRAEDTAVYYCAAGVPDYWGQGTLVTVSSGGGGSGGGGSGGGGSQSVLTQPPSASGTPGQRVTISCSGSSSNIGSDYDVHWYQQLPGTAPKLLIYSNEERPSGVPDRFSGSKSGTSASLAISGLRSEDEADYYCSAWDSSLSGPVFGGGTKLTVLGGGGSGGGGSGGGGSGVECPPCPAPPVAGPSVFIFPPKPKDVLTITLTPKVTCVVVDISKDDPEVQFSWFVDDVEVHTAQTQPREEQFNSTFRSVSELPIMHQDWLNGKEFKCRVNSAAFPAPIEKTISKTKGRPKAPQVCTIPPPKEQMAKDKVSLSCAITDFFPEDITVEWQWNGQPAENYKNTQPIMDTDGSYFVVSKLNVQKSNWEAGNTFTCSVLHEGLHNHHTEKSLSHSPGK
notes: scFv-kih-mIgG1; bispecific comprising CDRs of TPP-29528 and TPP-29519

IC50 [6]: 1.6 nM
B3: TPP-29697 (bispecific antibody, IgG1)
chain 1: QVQLVESGGGVVQPGRSLRLSCAASGFTFSHYDMHWVRQAPGKGLEWVAVISYHGSVKFYADSVKGRFTISRDNSKNTLYLQMNSLRAEDTAVYYCARTPGFHFDYWGQGTLVTVSSGGGGSGGGGSGGGGSQSVLTQPPSASGTPGQRVTISCSGSSSNIGSNYVSWYQQLPGTAPKLLIYYDDLRPSGVPDRFSGSKSGTSASLAISGLRSEDEADYYCSAWDDSLSGVVFGGGTKLTVLGGGGSGGGGSGGGGSGVECPPCPAPPVAGPSVFLFPPKPKDTLMISRTPEVTCVVVGVSHEDPEVKFNWYVDGVEVHNAKTKPREEQYNSTYRVVSVLTVLHQDWLNGKEYKCKVSNKQLPSPIEKTISKAKGQPREPQVYTLPPCRDELTKNQVSLWCLVKGFYPSDIAVEWESNGQPENNYKTTPPVLDSDGSFFLYSKLTVDKSRWQQGNVFSCSVMHEALHNHYTQKSLSLSPGK
chain 2: EVQLLESGGGLVQPGGSLRLSCAASGFTFSSYGMHWVRQAPGKGLEWVAVISYDGSYKYYADSVKGRFTISRDNSKNTLYLQMNSLRAEDTAVYYCAAGVPDYWGQGTLVTVSSGGGGSGGGGSGGGGSQSVLTQPPSASGTPGQRVTISCSGSSSNIGSDYDVHWYQQLPGTAPKLLIYSNEERPSGVPDRFSGSKSGTSASLAISGLRSEDEADYYCSAWDSSLSGPVFGGGTKLTVLGGGGSGGGGSGGGGSGVECPPCPAPPVAGPSVFLFPPKPKDTLMISRTPEVTCVVVGVSHEDPEVKFNWYVDGVEVHNAKTKPREEQYNSTYRVVSVLTVLHQDWLNGKEYKCKVSNKQLPSPIEKTISKAKGQPREPQVCTLPPSRDELTKNQVSLSCAVKGFYPSDIAVEWESNGQPENNYKTTPPVLDSDGSFFLVSKLTVDKSRWQQGNVFSCSVMHEALHNHYTQKSLSLSPGK
notes: scFv-kih-hIgG1 with Fc-silencing mutations; bispecific comprising CDRs of TPP-29528 and TPP-29519
